Biological target: PCSK9 S123R (human) (UniProt Q8NBP7)
Test: Luminex bead assay

- BmaxPerWT (% of wild type): 87.6
- RawMaxPerWT (% of wild type): 88.1
B1: 21B12 (isotype as tested not stated) (antibody, V domains shown)
VH: QVQLVQSGAEVKKPGASVKVSCKASGYTLTSYGISWVRQAPGQGLEWMGWVSFYNGNTNYAQKLQGRGTMTTDPSTSTAYMELRSLRSDDTAVYYCARGYGMDVWGQGTTVTVSS
VL: QSALTQPASVSGSPGQSITISCTGTSSDVGGYNSVSWYQQHPGKAPKLMIYEVSNRPSGVSNRFSGSKSGNTASLTISGLQAEDEADYYCNSYTSTSMVFGGGTKLTVL

Reference: US20140357851A1
